Laboratory results taken from the PETadex activity labels (doi:10.1016/s0021-9258(19)85305-x).
Substitutions are numbered along the chain they refer to.

B1: unnamed (protein)
chain: MRPPQCLLHTPSLASPLLLLLLWLLGGGVGAEGREDAELLVTVRGGRLRGIRLKTPGGPVSAFLGIPFAEPPMGPRRFLPPEPKQPWSGVVDATTFQSVCYQYVDTLYPGFEGTEMANPNRELSEDCLYLNVWTPYPRPTSPTPVLVWIYGGGFYSGASSLDVYDGRFLVQAERTVLVSMNYRVGAFGFLALPGSREAPGNVGLLDQRLALQWVQENVAAFGGDPTSVTLFGESAGAASVGMHLLSPPSRGLFHRAVLQSGAPNGPWATVGMGEARRRATQLAHLVGCPPGGTGGNDTELVACLRTRPAQVLVNHEWHVLPQESVFRFSFVPVVDGDFLSDTPEALINAGDFHGLQVLVGVVKDEGSYFLVYGAPGFSKDNESLISRAEFLAGVRVGVPQVSDLAAEAVVLHYTDWLHPEDPARLREALSDVVGDHNVVCPVAQLAGRLAAQGARVYAYVFEHRASTLSWPLWMGVPHGYEIEFIFGIPLDPSRNYTAEEKIFAQRLMRYWANFARTGDPNEPRDPKAPQWPPYTAGAQQYVSLDLRPLEVRRGLRAQACAFWNRFLPKLLSATDTLDEAERQWKAEFHRWSSYMVHWKNQFDHYSKQDRCSDL
B2: unnamed (protein)
chain: B1 chain with A117W, F369A
B3: unnamed (protein)
chain: B1 chain with A117W, Y368F
B4: unnamed (protein)
chain: B1 chain with A117W
B5: unnamed (protein)
chain: B1 chain with A117W, W317A

Substrate: p-NP-C2
Conditions: pH 8; 27 °C

**Q.** Which Km does the source give for B1 here?
**A.** Its Km is 3 mM.

**Q.** What about the kcat of the same protein?
**A.** The kcat was 3170 s⁻¹.

**Q.** What about the kcat/Km of the same protein?
**A.** Its kcat/Km is 1.06e+06 M⁻¹ s⁻¹.

**Q.** How did the Km turn out when B2 was run?
**A.** Its Km is 8.6 mM.

**Q.** What about the kcat of the same protein?
**A.** Its kcat is 333 s⁻¹.

**Q.** And the kcat/Km?
**A.** Its kcat/Km is 38800 M⁻¹ s⁻¹.

**Q.** B3 was tested. Which Km did it give?
**A.** Its Km is 5.4 mM.

**Q.** What about the kcat of the same protein?
**A.** Its kcat is 1600 s⁻¹.

**Q.** And the kcat/Km?
**A.** The kcat/Km was 296000 M⁻¹ s⁻¹.

**Q.** With B4 as the protein, how does the Km read?
**A.** The Km was 5.6 mM.

**Q.** What about the kcat of the same protein?
**A.** The kcat was 1830 s⁻¹.

**Q.** What about the kcat/Km of the same protein?
**A.** The kcat/Km was 327000 M⁻¹ s⁻¹.

**Q.** Which Km does the source give for B5 here?
**A.** Its Km is 4.6 mM.

**Q.** And the kcat?
**A.** Its kcat is 2170 s⁻¹.

**Q.** And the kcat/Km?
**A.** The kcat/Km was 471000 M⁻¹ s⁻¹.
